Results taken from PMC5750218, “Protein-inspired antibiotics active against vancomycin- and daptomycin-resistant bacteria” (Nature Communications, 2018).
Read-outs that look alike come from different tables or passages of the source.

Experiments:
[1] = for half-life / microsomal CLint: liver microsomes; for Microsome-Predicted EH: hepatic extraction ratio
Description: Performed by CDCO, Monash University, Australia.
The metabolic stability assay was performed by incubating each test compound (1 μM) with human (Xenotech, Lot #1210057) and mouse (Xenotech, Lot #1110071) liver microsomes at 37 °C and 0.4 mg mL^−1 protein concentration. The metabolic reaction was initiated by the addition of a nicotinamide adenine dinucleotide phosphate (NADPH)-regenerating system (i.e. NADPH is the cofactor required for cytochrome P450-mediated metabolism) and quenched at various time points over the 60 min incubation period by the addition of acetonitrile. Control samples (containing no NADPH) were included (and quenched at 2, 30 and 60 min) to monitor for potential degradation in the absence of cofactors. Concentrations of each test compound in quenched samples were determined by ultra performance liquid chromatography mass spectrometry (UPLC-MS) (Waters/Micromass Xevo triple quadrupole mass spectrometer). […] In addition, glucuronidation was not considered in this study and may require further assessment using alternative test systems.
Test compound concentration vs. time data were fitted to an exponential decay function to determine the first-order rate constant for substrate depletion. In cases where clear deviation from first-order kinetics was evident, only the initial linear portion of the profile was utilised to determine the degradation rate constant (k). Each substrate depletion rate constant was then used to calculate: (1) a degradation half-life, where t 1/2 = ln(2) k ^−1; (2) an in vitro intrinsic clearance value, where CLint,in vitro = k [microsomal protein content (0.4 mg mL^−1)]^−1; (3) a predicted in vivo hepatic intrinsic clearance value, where CLint = CLint,in vitro × [liver mass (g)/body weight (kg)] × [microsomal protein (mg) / liver mass (g)]; and (4) a predicted in vivo hepatic extraction ratio, where E H = CLblood Q ^−1 = Clint [Q + Clint]^−1.
Scaling parameters assumed were: human liver mass 20 g liver / kg body weight, human microsomal protein 40 mg g^−1 liver mass[49], [50], human hepatic blood flow (Q) 20.7 mL min^−1 kg body weight^−1 [51], mouse liver mass 87.5 g liver / kg body weight, mouse microsomal protein 45 mg g^−1 liver mass[51], mouse hepatic blood flow (Q) 90 mL min^−1 kg body weight^−1 [51].

[2] = tested on: S. aureus ATCC 43300 (MRSA); test: Time kill assay; format: cell-based, Staphylococcus aureus
Description: S. aureus ATCC® 43300™ (MRSA) was cultured in MHB (BactoLaboratories, Cat. No 211443) at 37 °C overnight. A sample was then diluted 40-fold in fresh MHB and incubated at 37 °C for 2–3 h until the culture reached early exponential phase (OD600 of 0.2–0.4). Vancapticin 24 ([…] and 0.003 µg mL^−1) and vancomycin (4, 2, 1 and 0.5 µg mL^−1) were serially diluted twofold across the wells of 96-well microtitre plates (NBS, Corning 3641) with a final volume of 50 µL, then combined with 50 µL of bacterial inoculum (giving a final cell density of 5 × 10^5 CFU mL^−1) and incubated at 37 °C. Serial dilutions of the cultures were plated at each desired time point, using a multichannel pipette as follows: in row A of a 96-well plate, 50 µL of sterile activated charcoal suspension (25 mg mL^−1) was added, while 90 µL of 0.9% sterile saline per well was added to the other rows. At selected time-points, 50 µL aliquots were transferred from the time-kill assay plate to the first row containing the charcoal suspension and mixed well. […] The colonies in each spot were counted and used to calculate the number of viable CFU mL^−1 remaining in the original culture by considering the dilution factors (1:2 in charcoal, the serial dilution factor and the volume of the aliquot spotted).

MRSA (Strain ATCC 43300) = test: MRSA thigh infection in vivo efficacy model (neutropenic mice); design: species or system Staphylococcus aureus; details: single 25 mg kg^−1 SC dose
Description: Thighs were then removed, weighed and homogenised in a fixed volume of saline.
Untreated animals received equivalent volume of saline (Baxter). […] For each mouse, both thighs were collected aseptically by cutting the leg at the hip and knee, placed in 10 mL of cold sterile saline and the individual weight of each thigh recorded.

[3] = tested on: S. pneumoniae (ATCC 6301); test: S. pneumoniae lung infection in vivo efficacy model (mice); design: species or system Streptococcus pneumoniae; details: 25 mg kg^−1 SC qd, 10 days
Description: The study objective was to evaluate the antimicrobial activity of test articles in a lung infection model with S. pneumoniae (ATCC® 6301™). Male ICR mice were inoculated intratracheally (IT) with S. pneumoniae at an inoculum size of 2.96 × 10^6 CFU per mouse (20 µL per mouse). […] The reference standard, vancomycin 1, was dosed at 25 mg kg^−1 qd SC at 2 h after IT inoculation. […] An increase in survival rate of 50 percent or more ( ≥ 50%) of the treated animals relative to the vehicle group indicates significant antimicrobial activity.
Test substances at 25 mg kg^−1 were each administered subcutaneously (SC) to test animals 2 h after inoculation. The dosing volume was 10 mL kg^−1.
Vehicle (10 mL kg^−1), vancomycin and test substances at 25 mg kg^−1 were each administered subcutaneously 2 h post-infection. Mortality was recorded daily for 10 days following inoculation. Increase of 50 percent or more (≥ 50%) in survival rate relative to the vehicle control group indicates significant anti-infective activity.

[4] = SPR membrane binding assay; details: L1 chip, DMPC / DMPG bilayers
Description: SPR experiments were performed using a BIAcore 3000 (GE Health) instrument with a Biacore vesicle capture L1 sensor chip. […] Small unilamellar vesicles (SUV) were prepared in phosphate buffered saline (PBS) (pH 7.4) by sonication and extrusion. […] PBS was then added into each flask to give a suspension, which was sonicated for 5 cycles of 5 min each. […] The SUVs were injected across the L1 sensor chip for 30 min at a flow rate of […] to form a supported lipid bilayer. The coverage of the lipid bilayer was determined from the extent of non-specific binding of bovine serum albumin (0.1 mg mL^-1 in PBS, 5 min injection). A series of concentrations of vancomycin and […] passed sequentially over the different phospholipid-containing flow cells at a flow rate of 30 μL min^-1 for 180 s. The amount of antibiotic bound at equilibrium just before the end of the injection was corrected by subtraction of the bulk-refractive index difference observed at the beginning and the end of each injection. After each injection cycle, the lipid surface was regenerated with 20 mM 3-[(3-cholamidopropyl)dimethylammonio]-1-propanesulfonate (CHAPS) and a fresh lipid bilayer was loaded as described above. All assays were carried out at 25 °C in triplicate. […]

MRSA (ATCC 43300) = details: 20 days, increasing sub-lethal concentrations
Description: A resistance induction assay was conducted for vancomycin, daptomycin, compound 17 and compound 24 [43].
S. aureus ATCC®43300™ was grown in Mueller Hinton broth supplemented with 50 µg mL^−1 of CaCl2. The bacterial culture was incubated at 37 °C in a shaker at 195 rpm.
The mid log S. aureus growth culture was serially diluted and plated on a solid LB agar plates in quadruplicates and incubated at 37 °C overnight to determine viable colony count.
The initial determination of the compound MICs were taken from the literature and empirically measured. […] The plate was then incubated at 37 °C overnight.
After overnight incubation, the growth of the S. aureus (MRSA) culture was determined by reading at OD600 on the Epoch microplate spectrophotometer and 0.1 OD600 was the chosen cut-off determining growth vs. no growth.

CCCCCCCCCCC(=O)N[C@@H](CCCCN)C(=O)N[C@@H](CCCCN)C(=O)N[C@@H](CCCCN)C(=O)N[C@@H](CCCCNC(=O)[C@H]1NC(=O)[C@H]2NC(=O)[C@H](NC(=O)[C@@H]3NC(=O)[C@H](CC(N)=O)NC(=O)[C@H](NC(=O)[C@@H](CC(C)C)NC)[C@H](O)c4ccc(c(Cl)c4)Oc4cc3cc(c4O[C@@H]3O[C@H](CO)[C@@H](O)[C@H](O)[C@H]3O[C@H]3C[C@](C)(N)[C@H](O)[C@H](C)O3)Oc3ccc(cc3Cl)[C@H]2O)c2ccc(O)c(c2)-c2c(O)cc(O)cc21)C(=O)O [Compound 18, nC10CO-KKK-K(Vancomycin)-OH]
half-life ([1]; human): > 4.17 h | microsomal CLint ([1]; human): < 7 µL/min/mg | Microsome-Predicted EH ([1]; human): < 0.23 | half-life ([1]; mouse): 3.93 h | microsomal CLint ([1]; mouse): 7 µL/min/mg | Microsome-Predicted EH ([1]; mouse): 0.24

CN[C@H](CC(C)C)C(=O)N[C@H]1C(=O)N[C@@H](CC(N)=O)C(=O)N[C@H]2C(=O)N[C@H]3C(=O)N[C@H](C(=O)N[C@H](C(=O)O)c4cc(O)cc(O)c4-c4cc3ccc4O)[C@H](O)c3ccc(c(Cl)c3)Oc3cc2cc(c3O[C@@H]2O[C@H](CO)[C@@H](O)[C@H](O)[C@H]2O[C@H]2C[C@](C)(N)[C@H](O)[C@H](C)O2)Oc2ccc(cc2Cl)[C@H]1O [Compound 1, Vancomycin]
Bactericidal profile in time kill assay [2]: slowly bactericidal | Efficacy in thigh infection model (MRSA (Strain ATCC 43300)): almost inactive | survival rate relative to the vehicle control [3]: ≥ 50%

CCCCCCCCCCCCCC(=O)N[C@@H](CCCCN)C(=O)N[C@@H](CCCCN)C(=O)N[C@@H](CCCCN)C(=O)N[C@@H](CCCCNC(=O)[C@H]1NC(=O)[C@H]2NC(=O)[C@H](NC(=O)[C@@H]3NC(=O)[C@H](CC(N)=O)NC(=O)[C@H](NC(=O)[C@@H](CC(C)C)NC)[C@H](O)c4ccc(c(Cl)c4)Oc4cc3cc(c4O[C@@H]3O[C@H](CO)[C@@H](O)[C@H](O)[C@H]3O[C@H]3C[C@](C)(N)[C@H](O)[C@H](C)O3)Oc3ccc(cc3Cl)[C@H]2O)c2ccc(O)c(c2)-c2c(O)cc(O)cc21)C(=O)O [Compound 17, nC13CO-KKK-K(Vancomycin)-OH]
Membrane association by SPR compared to vancomycin [4]: Increased membrane association | Induced resistance on serial culture (MRSA (ATCC 43300)): low levels of resistance compared to daptomycin

CCCCCCCCCCC(=O)N[C@@H](CCCCN)C(=O)N[C@@H](CCCCN)C(=O)N[C@@H](CCCCNC(=O)[C@H]1NC(=O)[C@H]2NC(=O)[C@H](NC(=O)[C@@H]3NC(=O)[C@H](CC(N)=O)NC(=O)[C@H](NC(=O)[C@@H](CC(C)C)NC)[C@H](O)c4ccc(c(Cl)c4)Oc4cc3cc(c4O[C@@H]3O[C@H](CO)[C@@H](O)[C@H](O)[C@H]3O[C@H]3C[C@](C)(N)[C@H](O)[C@H](C)O3)Oc3ccc(cc3Cl)[C@H]2O)c2ccc(O)c(c2)-c2c(O)cc(O)cc21)C(=O)O [Compound 19, nC10CO-KK-K(Vancomycin)-OH]
half-life ([1]; human): > 4.17 h | microsomal CLint ([1]; human): < 7 µL/min/mg | Microsome-Predicted EH ([1]; human): < 0.23 | half-life ([1]; mouse): > 4.17 h | microsomal CLint ([1]; mouse): < 7 µL/min/mg | Microsome-Predicted EH ([1]; mouse): < 0.23
